Laboratory results reported in patent US7838249 (BOARD OF REGENTS OF THE UNIVERSITY OF OKLAHOMA, dated 2010).

B1: 6-His-Rabaptin-5(551-862) (other)
chain: HHHHHHAETRDQVKKLQLMLRQANDQLEKTMKDKQELEDFIKQSSEDSSHQISALVLRAQASEILLEELQQGLSQAKRDVQEQMAVLMQSREQVSEELVRLQKDNDSLQGKHSLHVSLQQAEDFILPDTTEALRELVLKYREDIINVRTAADHVEEKLKAEILFLKEQIQAEQCLKENLEETLQLEIENCKEEIASISSLKAELERIKVEKGQLESTLREKSQQLESLQEIKISLEEQLKKETAAKATVEQLMFEEKNKAQRLQTELDVSEQVQRDFVKLSQTLQVQLERIRQADSLERIRAILNDTKLTDINQLPET
B2: 6-His-Rabaptin-5(551-661) (other)
chain: HHHHHHAETRDQVKKLQLMLRQANDQLEKTMKDKQELEDFIKQSSEDSSHQISALVLRAQASEILLEELQQGLSQAKRDVQEQMAVLMQSREQVSEELVRLQKDNDSLQGKHSLHVS
notes: Purified from E. coli BL21(DE3)

Experiments:
[1] = target: TrkA (high-affinity NGF receptor), expressed in PC12 cells from pBI/TrkA; assay: cell-based or functional assay
Sequence of TrkA (high-affinity NGF receptor), expressed in PC12 cells from pBI/TrkA (P35739 33-799): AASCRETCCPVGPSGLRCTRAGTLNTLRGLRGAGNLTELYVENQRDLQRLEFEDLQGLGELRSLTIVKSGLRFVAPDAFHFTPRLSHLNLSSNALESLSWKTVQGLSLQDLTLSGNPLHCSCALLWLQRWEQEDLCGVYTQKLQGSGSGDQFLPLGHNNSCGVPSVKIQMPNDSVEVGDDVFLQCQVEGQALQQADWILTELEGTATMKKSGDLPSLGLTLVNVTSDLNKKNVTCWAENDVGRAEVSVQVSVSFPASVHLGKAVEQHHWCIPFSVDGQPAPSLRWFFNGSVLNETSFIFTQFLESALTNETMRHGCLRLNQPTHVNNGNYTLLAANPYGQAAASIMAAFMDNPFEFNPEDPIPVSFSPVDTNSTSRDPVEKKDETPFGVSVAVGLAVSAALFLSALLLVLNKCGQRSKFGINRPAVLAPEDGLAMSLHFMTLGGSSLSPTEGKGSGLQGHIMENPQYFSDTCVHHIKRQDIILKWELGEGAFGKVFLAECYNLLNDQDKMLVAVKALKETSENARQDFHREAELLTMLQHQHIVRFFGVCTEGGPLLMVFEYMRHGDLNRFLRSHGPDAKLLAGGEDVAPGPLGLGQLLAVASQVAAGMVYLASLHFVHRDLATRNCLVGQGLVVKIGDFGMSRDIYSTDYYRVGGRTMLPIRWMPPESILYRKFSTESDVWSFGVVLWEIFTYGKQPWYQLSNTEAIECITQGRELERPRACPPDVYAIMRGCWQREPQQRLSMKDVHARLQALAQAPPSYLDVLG

[2] = target: T1, GST-Rabex-5(135-399) (Bos taurus, UniProt O18973 135-399); assay: GST pull-down, SDS-PAGE, Coomassie staining
T1 construct: Immobilized on glutathione Sepharose-4B; also called the GEF domain itself
T1 sequence (O18973 other isoform, or with tags, fused parts or gaps limits assumed): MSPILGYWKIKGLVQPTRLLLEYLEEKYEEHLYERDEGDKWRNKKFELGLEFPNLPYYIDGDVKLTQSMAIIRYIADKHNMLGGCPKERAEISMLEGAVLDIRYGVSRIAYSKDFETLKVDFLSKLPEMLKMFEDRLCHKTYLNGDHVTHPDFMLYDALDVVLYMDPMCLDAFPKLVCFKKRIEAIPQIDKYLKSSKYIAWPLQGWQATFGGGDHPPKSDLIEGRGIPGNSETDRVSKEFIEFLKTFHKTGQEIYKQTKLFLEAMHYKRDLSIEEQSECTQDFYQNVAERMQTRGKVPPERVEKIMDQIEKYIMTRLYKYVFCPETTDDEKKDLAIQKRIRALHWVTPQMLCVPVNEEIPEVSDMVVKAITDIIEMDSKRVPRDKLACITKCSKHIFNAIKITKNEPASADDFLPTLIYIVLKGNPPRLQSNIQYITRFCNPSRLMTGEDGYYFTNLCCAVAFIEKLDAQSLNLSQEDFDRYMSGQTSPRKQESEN
Description: The final concentration of each protein was <2 μM for detection of specific binding. The resins were subsequently washed three times with phosphate-buffered saline (PBS) and resuspended in 20 μl of SDS sample buffer. The samples were subjected to 20% SDS-PAGE analysis, and the proteins were visualized by Coomassie brilliant blue staining.
The bound proteins were analyzed by SDS-PAGE and visualized by Coomassie blue staining. […] Molecular mass standards (in kilodaltons) are indicated on the left of the panel.

| Molecule | NGF-mediated neurite outgrowth (percentage of differentiated PC12 cells) [1] [%] | binding result [2] |
| --- | --- | --- |
| Myc-tagged RabGAP5-C (residues 441-749) (from UniProt F1LQU9 454-763) | 20 | – |
| B1 | – | no binding |
| B2 | – | no binding |
